Experimental data: patent US20140206609A1 (Sanofi, published 2014)
Like-named read-outs stand apart in the source and are kept apart here. *1 amine or outer side, *2 acyl side, *3 side chain or, on linkers, in order; H or OH if unused. Where no end group is shown, it is not given here. Side-chain parts run from the residue outwards. [ ]: non-standard residue; d: D form. The star is where a group is joined. γGlu = O=C(O)[C@H](CCC(=O)[*:2])N[*:1]; Palmitoyl = CCCCCCCCCCCCCCCC(=O)*; Nle = CCCC[C@H](N)C(=O)O; Aib = CC(C)(N)C(=O)O

Tests used:
Assay in all cases: cell-based or functional assay
human GLP-1 receptor [1] = target: T1, human GLP-1 receptor (human, UniProt P43220 24-463)
human GIP receptor [2] = target: T2, human GIP receptor (human, UniProt P48546 22-466)
T2 sequence (looked up): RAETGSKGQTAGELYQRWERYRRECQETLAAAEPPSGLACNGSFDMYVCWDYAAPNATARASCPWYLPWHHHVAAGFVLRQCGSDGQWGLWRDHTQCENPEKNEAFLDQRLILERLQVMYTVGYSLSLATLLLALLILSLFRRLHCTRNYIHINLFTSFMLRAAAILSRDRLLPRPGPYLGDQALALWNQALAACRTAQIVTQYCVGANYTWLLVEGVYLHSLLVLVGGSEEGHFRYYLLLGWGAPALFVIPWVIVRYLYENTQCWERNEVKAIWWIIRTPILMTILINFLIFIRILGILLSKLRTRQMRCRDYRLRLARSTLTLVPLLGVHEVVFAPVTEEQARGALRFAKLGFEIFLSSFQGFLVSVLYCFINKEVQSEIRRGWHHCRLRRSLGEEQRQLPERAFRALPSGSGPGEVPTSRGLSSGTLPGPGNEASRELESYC

human GLP-1 receptor [3] = target: T1, human GLP-1 receptor; remark: listed apart in the source
human glucagon receptor = human glucagon receptor (human, UniProt P47871 26-477)
human GIP receptor [4] = target: T2, human GIP receptor; remark: listed apart in the source

Chain of human glucagon receptor (P47871 26-477): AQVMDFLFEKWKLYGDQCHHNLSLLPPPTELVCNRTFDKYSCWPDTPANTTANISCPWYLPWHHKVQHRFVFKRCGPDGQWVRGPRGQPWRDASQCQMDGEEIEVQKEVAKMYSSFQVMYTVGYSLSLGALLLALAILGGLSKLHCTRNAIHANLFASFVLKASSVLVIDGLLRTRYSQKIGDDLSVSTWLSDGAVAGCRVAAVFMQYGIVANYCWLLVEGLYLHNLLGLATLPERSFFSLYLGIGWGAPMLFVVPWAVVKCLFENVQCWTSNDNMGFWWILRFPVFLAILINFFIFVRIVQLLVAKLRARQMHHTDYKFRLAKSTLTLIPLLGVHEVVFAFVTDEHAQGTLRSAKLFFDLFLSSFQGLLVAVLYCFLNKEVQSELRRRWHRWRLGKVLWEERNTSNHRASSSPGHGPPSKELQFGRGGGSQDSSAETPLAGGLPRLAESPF

Binder	EC50 hGLP-1 R [pM] (human GLP-1 receptor [1])	EC50 hGIP R [pM] (human GIP receptor [2])	EC50 hGLP-1 R [pM] (human GLP-1 receptor [3])	EC50 hGLUC R [pM] (human glucagon receptor)	EC50 hGIP R [pM] (human GIP receptor [4])
Y[Aib]EGTFTSDLSIQ[Nle]EKRAA[Aib]EFIEWLKNTGPSSGAPPPS-NH2 (N-terminus assumed; SMILES CCCC[C@H](NC(=O)[C@H](CCC(N)=O)NC(=O)[C@@H](NC(=O)[C@H](CO)NC(=O)[C@H](CC(C)C)NC(=O)[C@H](CC(=O)O)NC(=O)[C@H](CO)NC(=O)[C@@H](NC(=O)[C@H](Cc1ccccc1)NC(=O)[C@@H](NC(=O)CNC(=O)[C@H](CCC(=O)O)NC(=O)C(C)(C)NC(=O)[C@@H](N)Cc1ccc(O)cc1)[C@@H](C)O)[C@@H](C)O)[C@@H](C)CC)C(=O)N[C@@H](CCC(=O)O)C(=O)N[C@@H](CCCCN)C(=O)N[C@@H](CCCNC(=N)N)C(=O)N[C@@H](C)C(=O)N[C@@H](C)C(=O)NC(C)(C)C(=O)N[C@@H](CCC(=O)O)C(=O)N[C@@H](Cc1ccccc1)C(=O)N[C@H](C(=O)N[C@@H](CCC(=O)O)C(=O)N[C@@H](Cc1c[nH]c2ccccc12)C(=O)N[C@@H](CC(C)C)C(=O)N[C@@H](CCCCN)C(=O)N[C@@H](CC(N)=O)C(=O)N[C@H](C(=O)NCC(=O)N1CCC[C@H]1C(=O)N[C@@H](CO)C(=O)N[C@@H](CO)C(=O)NCC(=O)N[C@@H](C)C(=O)N1CCC[C@H]1C(=O)N1CCC[C@H]1C(=O)N1CCC[C@H]1C(=O)N[C@@H](CO)C(N)=O)[C@@H](C)O)[C@@H](C)CC) [SEQ ID NO: 41]	11.2 pM	449 pM	–	–	–
Y[Aib]QGTFTSDLSIQLESRAAQDFIEWLKAGGPSSGAPPPS-NH2 (N-terminus assumed; SMILES CC[C@H](C)[C@H](NC(=O)[C@H](Cc1ccccc1)NC(=O)[C@H](CC(=O)O)NC(=O)[C@H](CCC(N)=O)NC(=O)[C@H](C)NC(=O)[C@H](C)NC(=O)[C@H](CCCNC(=N)N)NC(=O)[C@H](CO)NC(=O)[C@H](CCC(=O)O)NC(=O)[C@H](CC(C)C)NC(=O)[C@H](CCC(N)=O)NC(=O)[C@@H](NC(=O)[C@H](CO)NC(=O)[C@H](CC(C)C)NC(=O)[C@H](CC(=O)O)NC(=O)[C@H](CO)NC(=O)[C@@H](NC(=O)[C@H](Cc1ccccc1)NC(=O)[C@@H](NC(=O)CNC(=O)[C@H](CCC(N)=O)NC(=O)C(C)(C)NC(=O)[C@@H](N)Cc1ccc(O)cc1)[C@@H](C)O)[C@@H](C)O)[C@@H](C)CC)C(=O)N[C@@H](CCC(=O)O)C(=O)N[C@@H](Cc1c[nH]c2ccccc12)C(=O)N[C@@H](CC(C)C)C(=O)N[C@@H](CCCCN)C(=O)N[C@@H](C)C(=O)NCC(=O)NCC(=O)N1CCC[C@H]1C(=O)N[C@@H](CO)C(=O)N[C@@H](CO)C(=O)NCC(=O)N[C@@H](C)C(=O)N1CCC[C@H]1C(=O)N1CCC[C@H]1C(=O)N1CCC[C@H]1C(=O)N[C@@H](CO)C(N)=O) [SEQ ID NO: 40]	3.2 pM	858 pM	–	–	–
Y[Aib]EGTFTSDLSIQK([γGlu-Palmitoyl])ESRAA[Aib]EFIEWLKAGGPSSGAPPPS-NH2 (N-terminus assumed; SMILES CCCCCCCCCCCCCCCC(=O)N[C@@H](CCC(=O)NCCCC[C@H](NC(=O)[C@H](CCC(N)=O)NC(=O)[C@@H](NC(=O)[C@H](CO)NC(=O)[C@H](CC(C)C)NC(=O)[C@H](CC(=O)O)NC(=O)[C@H](CO)NC(=O)[C@@H](NC(=O)[C@H](Cc1ccccc1)NC(=O)[C@@H](NC(=O)CNC(=O)[C@H](CCC(=O)O)NC(=O)C(C)(C)NC(=O)[C@@H](N)Cc1ccc(O)cc1)[C@@H](C)O)[C@@H](C)O)[C@@H](C)CC)C(=O)N[C@@H](CCC(=O)O)C(=O)N[C@@H](CO)C(=O)N[C@@H](CCCNC(=N)N)C(=O)N[C@@H](C)C(=O)N[C@@H](C)C(=O)NC(C)(C)C(=O)N[C@@H](CCC(=O)O)C(=O)N[C@@H](Cc1ccccc1)C(=O)N[C@H](C(=O)N[C@@H](CCC(=O)O)C(=O)N[C@@H](Cc1c[nH]c2ccccc12)C(=O)N[C@@H](CC(C)C)C(=O)N[C@@H](CCCCN)C(=O)N[C@@H](C)C(=O)NCC(=O)NCC(=O)N1CCC[C@H]1C(=O)N[C@@H](CO)C(=O)N[C@@H](CO)C(=O)NCC(=O)N[C@@H](C)C(=O)N1CCC[C@H]1C(=O)N1CCC[C@H]1C(=O)N1CCC[C@H]1C(=O)N[C@@H](CO)C(N)=O)[C@@H](C)CC)C(=O)O) [SEQ ID NO: 35]	–	–	6.9 pM	39100 pM	7.3 pM
Y[Aib]QGTFTSDLSIQK([γGlu-Palmitoyl])DSRAAQDFIEWLKAGGPSSGAPPPS-NH2 (N-terminus assumed; SMILES CCCCCCCCCCCCCCCC(=O)N[C@@H](CCC(=O)NCCCC[C@H](NC(=O)[C@H](CCC(N)=O)NC(=O)[C@@H](NC(=O)[C@H](CO)NC(=O)[C@H](CC(C)C)NC(=O)[C@H](CC(=O)O)NC(=O)[C@H](CO)NC(=O)[C@@H](NC(=O)[C@H](Cc1ccccc1)NC(=O)[C@@H](NC(=O)CNC(=O)[C@H](CCC(N)=O)NC(=O)C(C)(C)NC(=O)[C@@H](N)Cc1ccc(O)cc1)[C@@H](C)O)[C@@H](C)O)[C@@H](C)CC)C(=O)N[C@@H](CC(=O)O)C(=O)N[C@@H](CO)C(=O)N[C@@H](CCCNC(=N)N)C(=O)N[C@@H](C)C(=O)N[C@@H](C)C(=O)N[C@@H](CCC(N)=O)C(=O)N[C@@H](CC(=O)O)C(=O)N[C@@H](Cc1ccccc1)C(=O)N[C@H](C(=O)N[C@@H](CCC(=O)O)C(=O)N[C@@H](Cc1c[nH]c2ccccc12)C(=O)N[C@@H](CC(C)C)C(=O)N[C@@H](CCCCN)C(=O)N[C@@H](C)C(=O)NCC(=O)NCC(=O)N1CCC[C@H]1C(=O)N[C@@H](CO)C(=O)N[C@@H](CO)C(=O)NCC(=O)N[C@@H](C)C(=O)N1CCC[C@H]1C(=O)N1CCC[C@H]1C(=O)N1CCC[C@H]1C(=O)N[C@@H](CO)C(N)=O)[C@@H](C)CC)C(=O)O) [SEQ ID NO: 37]	–	–	8.9 pM	32 pM	21.2 pM
Y[Aib]EGTFTSDLSIQK([γGlu-Palmitoyl])EKRAA[Aib]EFIEWLKAGGPSSGAPPPS-NH2 (N-terminus assumed; SMILES CCCCCCCCCCCCCCCC(=O)N[C@@H](CCC(=O)NCCCC[C@H](NC(=O)[C@H](CCC(N)=O)NC(=O)[C@@H](NC(=O)[C@H](CO)NC(=O)[C@H](CC(C)C)NC(=O)[C@H](CC(=O)O)NC(=O)[C@H](CO)NC(=O)[C@@H](NC(=O)[C@H](Cc1ccccc1)NC(=O)[C@@H](NC(=O)CNC(=O)[C@H](CCC(=O)O)NC(=O)C(C)(C)NC(=O)[C@@H](N)Cc1ccc(O)cc1)[C@@H](C)O)[C@@H](C)O)[C@@H](C)CC)C(=O)N[C@@H](CCC(=O)O)C(=O)N[C@@H](CCCCN)C(=O)N[C@@H](CCCNC(=N)N)C(=O)N[C@@H](C)C(=O)N[C@@H](C)C(=O)NC(C)(C)C(=O)N[C@@H](CCC(=O)O)C(=O)N[C@@H](Cc1ccccc1)C(=O)N[C@H](C(=O)N[C@@H](CCC(=O)O)C(=O)N[C@@H](Cc1c[nH]c2ccccc12)C(=O)N[C@@H](CC(C)C)C(=O)N[C@@H](CCCCN)C(=O)N[C@@H](C)C(=O)NCC(=O)NCC(=O)N1CCC[C@H]1C(=O)N[C@@H](CO)C(=O)N[C@@H](CO)C(=O)NCC(=O)N[C@@H](C)C(=O)N1CCC[C@H]1C(=O)N1CCC[C@H]1C(=O)N1CCC[C@H]1C(=O)N[C@@H](CO)C(N)=O)[C@@H](C)CC)C(=O)O) [SEQ ID NO: 36]	–	–	3.4 pM	5780 pM	6.4 pM
Y[Aib]EGTFTSDLSIQK([γGlu-Palmitoyl])EKRAAQEFIEWLKAGGPSSGAPPPS-NH2 (N-terminus assumed; SMILES CCCCCCCCCCCCCCCC(=O)N[C@@H](CCC(=O)NCCCC[C@H](NC(=O)[C@H](CCC(N)=O)NC(=O)[C@@H](NC(=O)[C@H](CO)NC(=O)[C@H](CC(C)C)NC(=O)[C@H](CC(=O)O)NC(=O)[C@H](CO)NC(=O)[C@@H](NC(=O)[C@H](Cc1ccccc1)NC(=O)[C@@H](NC(=O)CNC(=O)[C@H](CCC(=O)O)NC(=O)C(C)(C)NC(=O)[C@@H](N)Cc1ccc(O)cc1)[C@@H](C)O)[C@@H](C)O)[C@@H](C)CC)C(=O)N[C@@H](CCC(=O)O)C(=O)N[C@@H](CCCCN)C(=O)N[C@@H](CCCNC(=N)N)C(=O)N[C@@H](C)C(=O)N[C@@H](C)C(=O)N[C@@H](CCC(N)=O)C(=O)N[C@@H](CCC(=O)O)C(=O)N[C@@H](Cc1ccccc1)C(=O)N[C@H](C(=O)N[C@@H](CCC(=O)O)C(=O)N[C@@H](Cc1c[nH]c2ccccc12)C(=O)N[C@@H](CC(C)C)C(=O)N[C@@H](CCCCN)C(=O)N[C@@H](C)C(=O)NCC(=O)NCC(=O)N1CCC[C@H]1C(=O)N[C@@H](CO)C(=O)N[C@@H](CO)C(=O)NCC(=O)N[C@@H](C)C(=O)N1CCC[C@H]1C(=O)N1CCC[C@H]1C(=O)N1CCC[C@H]1C(=O)N[C@@H](CO)C(N)=O)[C@@H](C)CC)C(=O)O) [SEQ ID NO: 34]	–	–	4.6 pM	11600 pM	22.2 pM
